Data from patent US12263245B2, “Immunomodulating treatments of body cavities” (UROGEN PHARMA LTD., priority 2023, dated 2025).

Tests used:
CD4+ICOShi T cells = details: patients treated systemically with two doses, cited from earlier work
[1] = Aggregation stability of AGEN1884 drug product; assay type: physicochemical
From the text: AGEN1884 is very stable to aggregation.

[2] = design: species or system human; details: in vivo

Row | Substance | Expression of CD4+ICOShi T cells (CD4+ICOShi T cells; blood samples) | Increase in levels of IFN-γ compared to untreated patients (CD4+ICOShi T cells) | Increase in aggregate ([1]; all samples at all ambient temperatures analyzed (even elevated) through the nine-month time point) | Zalifrelimab aggregates after 24 hours ([1]; stored at about 2° C.-8° C. for at least 24 hours) | Sustained concentration of zalifrelimab detected in urine overtime [2]
1 | ipilimumab: an anti-CTLA-4 antibody | increased expression | approximately five-fold | – | – | –
2 | zalifrelimab: recombinant, fully human immunoglobulin G1 monoclonal antibody that neutralizes the inhibitory effects of CTLA-4 | – | – | no increase in aggregate was detected | substantially free from zalifrelimab aggregates | below the level of quantitation
